For data set [1], the system named is Cricetulus griseus GDP-Mannose 4,6-dehydratase (GMD), and GDP-fucose transporter 1 (GFT) mRNA. In words: Inhibition of antibody fucosylation in CHO with amiRNA targeting GMD and GFT. In kind it is cell-based. The settings on record: 14-day fed batch. From the text:
A multi-hairpin amiRNA gene was designed to target both Cricetulus griseus GDP-Mannose 4,6-dehydratase (GMD), and GDP-fucose transporter 1 (GFT). […]
Multi-hairpin amiRNA sequence with SEQ ID NO: 200 was placed to the 3′ of an open reading frame encoding a red fluorescent protein (with nucleotide sequence SEQ ID NO: 279) and followed by a rabbit globin polyadenylation sequence. […]

The test system of data set [2] is Homo sapiens GDP-Mannose 4,6-dehydratase (GMD) and GDP-fucose transporter 1 (GFT) mRNA. In words: Inhibition of antibody fucosylation in HEK cell pools, amiRNA directed toward GMD and GFT. The settings on record: HEK pool. In kind it is cell-based. From the text: A second multi-hairpin amiRNA gene was designed to target both Homo sapiens GDP-Mannose 4,6-dehydratase (GMD) with mRNA sequence given by SEQ ID NO: 8, and GDP-fucose transporter 1 (GFT) with mRNA sequence given by SEQ ID NO: 9. The multi-hairpin amiRNA, with nucleotide sequence SEQ ID NO: 204, comprised four hairpins; the first hairpin comprised guide strand sequence SEQ ID NO: 47 (complementary to the mRNA for human GMD, with sequence SEQ ID NO: 8), immediately followed by loop sequence SEQ ID NO: 241 and passenger strand sequence SEQ ID NO: 132; the second hairpin comprised guide strand sequence SEQ ID NO: 52 (complementary to the mRNA for human GFT, with sequence given by SEQ ID NO: 9), immediately followed by loop sequence SEQ ID NO: 241 and passenger strand sequence SEQ ID NO: 137; the third hairpin comprised guide strand sequence SEQ ID NO: 50 (complementary to the mRNA for human GFT, with sequence SEQ ID NO: 9), immediately followed by loop sequence SEQ ID NO: 241 and passenger strand sequence SEQ ID NO: 135 and the fourth hairpin comprised guide strand sequence SEQ ID NO: 49 (complementary to the mRNA for human GMD, with sequence given by SEQ ID NO: 8), immediately followed by loop sequence SEQ ID NO: 241 and passenger strand sequence SEQ ID NO: 134. Each passenger strand sequence was complementary to its corresponding guide strand sequence, except that the bases in the passenger strand sequences corresponding to the 5′ base of the guide strand and the twelfth base of the guide strand were changed to be non-complementary. The first and twelfth bases of guide strand with SEQ ID NO: 47 are T and G respectively, the corresponding bases in the corresponding passenger strand sequence SEQ ID NO: 132 are C and A respectively. […]
The multi-hairpin amiRNA sequences were placed to the 3′ of an open reading frame encoding a red fluorescent protein (with nucleotide sequence SEQ ID NO: 279) and followed by a rabbit globin polyadenylation sequence. […]

Where “and” joins values, the source holds several entries; their conditions need not be identical. Equal values may be shown once.

B1: SEQ ID NO: 200: four-hairpin amiRNA, two guides to Cricetulus griseus GMD mRNA (35, 36) and two to GFT mRNA (41, 42) (nucleic acid)
chain: ATCTGATCTTCTGAAGAAAATATATTTCTTTTTATTCATAGCTCTTAACTAGTGGTGATAGCAATGTCAGCAGTGCCTTTAAACTTCTTGATTTCCCAAAGTGAAGCCACAGATGTTTGGGAAATAAAGAAGTTTACAAGTAAGGTTGACCATACTCTACTCTAGTTATATTCTTTAGGCACGAATGTGTGTTTAAAAAAAATAAAAACTAGTGGTGATAGCAATGTCAGCAGTGCCTTCCTCTTAGATCATATTCCAAGGTGAAGCCACAGATGCTTGGAATATAATCTAAGAGGCAAGTAAGGTTGACCATACTCTACTCTAGAGTTGTGTTTTAATGTATATTAATGTTACTAATGTGTTTACTAGTGGTGATAGCAATGTCAGCAGTGCCTTTCAAGTAAAATGAGTATGTGAGTGAAGCCACAGATGTCACATACTCCTTTTACTTGACAAGTAAGGTTGACCATACTCTACTCTAGGTTATTTTTAGTATGATTCTGTAAAAATGAATTAATACTAACTAGTGGTGATAGCAATGTCAGCAGTGCCTTCAATTAGTGGGATCACAACCCGTGAAGCCACAGATGGGGTTGTGATACCACTAATTGCAAGTAAGGTTGACCATACTCTACTCTAGTCAGTTTTATTGATAGTCTTTTCAGTATTATTGATAATCTT
Turning to B1, the “G0 + G1 % (area)” value in data set [1] (afucosylated antibody heavy chain, CMV promoter) is reported as 100 % (area). Further, the “G0F + G1F (% area)” value in data set [1] (fucosylated antibody heavy chain, BDL=below detection limit, listed as 200) is “no fucose was detectable by mass spectroscopy and BDL”.

B2: SEQ ID NO: 204: four-hairpin amiRNA, two guides to Homo sapiens GMD mRNA (47, 49) and two to GFT mRNA (52, 50) (nucleic acid)
chain: ATCTGATCTTCTGAAGAAAATATATTTCTTTTTATTCATAGCTCTTAACTAGTGGTGATAGCAATGTCAGCAGTGCCTTAAAACATCTTGATTTCACAAAGTGAAGCCACAGATGTTTGTGAAATAAAGATGTTTTCAAGTAAGGTTGACCATACTCTACTCTAGTTATATTCTTTAGGCACGAATGTGTGTTTAAAAAAAATAAAAACTAGTGGTGATAGCAATGTCAGCAGTGCCTTATTACTTGTAAACACTGGTTCGTGAAGCCACAGATGGAACCAGTGTCTACAAGTAATCAAGTAAGGTTGACCATACTCTACTCTAGAGTTGTGTTTTAATGTATATTAATGTTACTAATGTGTTTACTAGTGGTGATAGCAATGTCAGCAGTGCCTTTCACTACTGTGCTGGCCCCGCGTGAAGCCACAGATGGCGGGGCCAGAACAGTAGTGACAAGTAAGGTTGACCATACTCTACTCTAGGTTATTTTTAGTATGATTCTGTAAAAATGAATTAATACTAACTAGTGGTGATAGCAATGTCAGCAGTGCCTTTGTTGTGTAACAACATAATTTGTGAAGCCACAGATGAAATTATGTTATTACACAACACAAGTAAGGTTGACCATACTCTACTCTAGTCAGTTTTATTGATAGTCTTTTCAGTATTATTGATAATCTT
Regarding B2, the “G0 + G1 % (area)” value in data set [2] (afucosylated antibody, 7-day transient culture) was 100 % (area). Further, the “Titer” value in data set [2] (antibody in culture supernatant, 7-day culture, listed as 204) was 126 mg/L and 120 mg/L. For the same molecule, the “G0F + G1F (% area)” value in data set [2] (fucosylated antibody, 7-day transient culture, BDL=below detection limit, listed as 204) was “complete abolition of antibody fucosylation and BDL”.

These data come from patent US20230313187A1, “MODIFICATIONS OF MAMMALIAN CELLS USING ARTIFICIAL MICRO-RNA TO ALTER THEIR PROPERTIES AND THE COMPOSITIONS OF THEIR PRODUCTS” (DNA TWOPOINTO INC., priority 2020, published 2023).
